Source: PMC7519303

Target: SgmX-Strep (C-terminal Strep-tagged SgmX variant) (M. xanthus)
Assay: SDS/PAGE of the purified protein; purified SgmX-Strep; band of ~233 kDa, heat- and detergent-resistant dimer

stoichiometry N: 2
Substance: SgmX-Strep (C-terminal Strep-tagged SgmX variant) (natural protein)
